In patent publication US8609353B2, “Diagnostics and methods for removal and detection of interferents” (Systagenix Wound Management (US), Inc., priority 2007, dated 2013):
Primed or numbered codes have the meaning given here. * marks the point of attachment. Dabcyl″ = label, CN(C)c1ccc(/N=N/c2ccc(C(=O)*)cc2)cc1

Key:
[1] = tested on: Pseudomonas aeruginosa (PA14); assay: PAIN1 FRET assay with overnight grown bacterial culture; assay type: biochemical; settings: 10 μl overnight grown culture, over one hour
Method: (§1) PAIN1 was designed from a high throughput screen. The peptide was tested in the FRET format with the fluorescent dye Edans attached to one end of the peptide and the quencher Dabcyl attached to the other end of the peptide. The sequence of the PAIN1 peptide used for this assay was NH2-E(Edans) PMPPLCTSMK(Dabcyl)-COOH (SEQ ID NO: 10). Cleavage of the peptide substrate by papain will produce a fluorescent signal. The peptide was tested using 5 μl of a 5 mg/ml solution with 10 μl of overnight grown bacterial culture or with 10 μl of 120 mg/ml ACCUZYME®, a papain-containing debriding ointment (DPT Laboratories), in 100 μl total volume. The bacteria cultures tested were Pseudomonas aeruginosa (PA14), Streptococcus pyogenes (grown in BHI and TSB media), E. coli, Enterococcus faecalis, and Serratia marcesens. The relative fluorescence is shown over one hour. […] In particular, the bacteria that appear to cross-react the most with PAIN1 were Pseudomonas aeruginosa and Streptococcus pyogenes.

Streptococcus pyogenes = assay: as above; assay type: biochemical; settings: 10 μl overnight grown culture, over one hour
Method: as §1

papain = molecular target: T1, papain (Carica papaya, UniProt P00784); assay: PAIN1 FRET assay with papain-containing ointment ACCUZYME; assay type: biochemical; settings: 10 μl of 120 mg/ml ACCUZYME, over one hour
T1 construct: purchased DPT Laboratories ACCUZYME
T1 sequence (P00784 134-345): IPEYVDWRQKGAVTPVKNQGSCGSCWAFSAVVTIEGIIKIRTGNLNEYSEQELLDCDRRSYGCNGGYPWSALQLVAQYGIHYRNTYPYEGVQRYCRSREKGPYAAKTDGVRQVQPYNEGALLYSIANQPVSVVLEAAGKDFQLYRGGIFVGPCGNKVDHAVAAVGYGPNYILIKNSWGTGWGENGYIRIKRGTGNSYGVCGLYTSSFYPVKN
Method: as §1

[2] = molecular target: T2, human neutrophil elastase (Homo sapiens, UniProt P08246); assay: FRET protease assay of bacterial peptide substrates with human neutrophil elastase (cross-reactivity); assay type: biochemical
T2 sequence (P08246 30-267): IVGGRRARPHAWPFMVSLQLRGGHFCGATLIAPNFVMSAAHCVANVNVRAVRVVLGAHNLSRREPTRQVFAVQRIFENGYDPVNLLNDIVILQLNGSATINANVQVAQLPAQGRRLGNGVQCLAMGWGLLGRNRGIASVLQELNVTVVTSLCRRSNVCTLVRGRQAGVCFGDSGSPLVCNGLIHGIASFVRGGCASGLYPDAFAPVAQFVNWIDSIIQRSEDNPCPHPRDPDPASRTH
Method: Based on the concentration of elastase from human wound fluid, it was determined whether this amount of elastase (0-50 μg/ml) would cause false positives in a protease assay using fluorescence resonance energy transfer (FRET) with peptides that are specific substrates for bacteria (FIGS. 3A-3C). Broad spectrum pathogen peptides such as CPI2 (peptide sequence EGAMFLEAIPMSIPK (referred to herein as SEQ ID NO: 3)) (that reacts with Staphylococcus aureus, Proteus mirabilis, Pseudomonas aeruginosa, Enterococcus faecalis, and Streptococcus pyogenes) were studied. Specific peptides for Pseudomonas aeruginosa (E8 (peptide sequence […] (referred to herein as SEQ ID NO: 4)) and G6 (peptide sequence EAAHQSALQSAK (referred to herein as SEQ ID NO: 5))), Staphylococcus aureus (SAP2 (peptide sequence […] (referred to herein as SEQ ID NO: 6)), Escherichia coli (T2 (peptide sequence EVSRRRRRGGK (referred to herein as SEQ ID NO: 7)) and T3 (peptide sequence KKASEVSRRRRRGGK (referred to herein as SEQ ID NO: 8)) were also studied. The […] were tested with three concentrations of human neutrophil elastase. The peptide substrates were tested in the FRET format with the fluorescent dye Edans attached to one end of the peptide and the quencher Dabcyl attached to the other end of the peptide. In this FRET assay format, amino acids are added to the terminals of the peptides to introduce the FRET assay dye. For example, an “E” is added to the N terminal and a “K” is added to the C terminal. For example, the “E” can be (E-EDANS) and the “K” can be (K-Dabcyl). Cleavage of the peptide substrate by human neutrophil elastase will produce a fluorescent signal.

bacterial proteases = assay: HE1 specificity versus bacterial proteases; assay type: biochemical
Method: (§2) Specificity was tested with 20 μl of a 1:10 dilution of the Affigel beads reacted with 100 μl media control or overnight grown culture of Pseudomonas aeruginosa, Streplococcus pyogenes, Escherichia coli, and Enterococcus faecalis in 200 μl total volume, as described above. The samples were spun down and a 20 μl aliquot measured in 500 μl total volume ABTS over 5 minutes.

Pseudomonas aeruginosa = assay: HE1-Affigel bead HRP release specificity test with overnight grown culture; assay type: biochemical; settings: 100 μl overnight grown culture; ABTS over 5 minutes
Method: as §2

elastase = molecular target: T3, elastase (Homo sapiens, UniProt P08246); assay: HE1-Affigel bead HRP release spin through assay with elastase; assay type: biochemical; settings: 5 μg/ml elastase, 5 minutes; ABTS substrate over 5 minutes
T3 sequence (P08246 30-267): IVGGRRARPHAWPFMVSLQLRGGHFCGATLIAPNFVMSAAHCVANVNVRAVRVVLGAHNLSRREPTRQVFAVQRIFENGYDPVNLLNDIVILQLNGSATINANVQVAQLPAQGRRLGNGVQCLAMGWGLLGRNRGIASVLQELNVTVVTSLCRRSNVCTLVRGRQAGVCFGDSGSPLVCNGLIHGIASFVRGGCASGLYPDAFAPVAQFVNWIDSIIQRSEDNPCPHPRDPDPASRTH
Method: The peptide was tested for activity by conjugating one end to Affigel 10 beads (BioRad) and the other end to HRP reporter enzyme. The sequence of the HE1 peptide used for this assay was H2N-PFPQANYITYC-OH) (SEQ ID NO: 9). The activity was measured by detecting the release of HRP from the beads in a spin through assay. Testing was performed with 20 μl of a 1:10 dilution of HE1-Affigel beads reacted with 5 μg/ml elastase in 200 μl total volume for 5 minutes.

[3] = molecular target: T4, PAIN1 peptide (NH2-E(Edans) PMPPLCTSMK(Dabcyl)-COOH)
T4 chain: PMPPLCTSMK

[4] = molecular target: T5, E8 (peptide sequence EQADALHDQASALK)
T5 chain: EQADALHDQASALK

[5] = molecular target: T6, T2 (peptide sequence EVSRRRRRGGK)
T6 chain: EVSRRRRRGGK

[6] = molecular target: T7, T3 (peptide sequence KKASEVSRRRRRGGK)
T7 chain: KKASEVSRRRRRGGK

[7] = molecular target: T8, G6 (peptide sequence EAAHQSALQSAK)
T8 chain: EAAHQSALQSAK

[8] = molecular target: T9, CPI2 (peptide sequence EGAMFLEAIPMSIPK)
T9 chain: EGAMFLEAIPMSIPK

[9] = molecular target: T10, SAP2 (peptide sequence ETKVEENEAIQK)
T10 chain: ETKVEENEAIQK

With “NH2-E(Edans) PMPPLCTSMK(Dabcyl)-COOH ({E(Edans)}-PMPPLCTSMK(Dabcyl″)-OH) [PAIN1]” the relative fluorescence response [1] was “lower but significant responses”, the relative fluorescence response (Streptococcus pyogenes) was “lower but significant responses” and the relative fluorescence response (papain) was “high response”.

With “EQADALHDQASALK (Pseudomonas aeruginosa E8-related peptide)” the “cross-reactivity with elastase (fluorescent signal)” value (shortened to “cross-reactivity with elastase”) ([2]; 50 μg/ml of elastase, FIG. 3C) was “cross-reacted”.

EGAMFLEAIPMSIPK (CPI2-related peptide) was tested, and the “cross-reactivity with elastase” value ([2]; 50 μg/ml of elastase, FIG. 3C) was “cross-reacted” and the “cross-reactivity with elastase” value ([2]; Five μg/ml of elastase, FIG. 3B) was “small response”.

With “H2N-PFPQANYITYC-OH (H-PFPQANYITYC-OH) [HE1]” the “cross-reaction with bacterial proteases” value (bacterial proteases) was “not cross react”, the “HRP release signal at 405 nm” value (Pseudomonas aeruginosa) was “very minor increase” and the “HRP release signal at 405 nm” value (elastase) was “clear signal”.

B1: papain (in ACCUZYME, a papain-containing debriding ointment, DPT Laboratories) (protein)
chain: IPEYVDWRQKGAVTPVKNQGSCGSCWAFSAVVTIEGIIKIRTGNLNEYSEQELLDCDRRSYGCNGGYPWSALQLVAQYGIHYRNTYPYEGVQRYCRSREKGPYAAKTDGVRQVQPYNEGALLYSIANQPVSVVLEAAGKDFQLYRGGIFVGPCGNKVDHAVAAVGYGPNYILIKNSWGTGWGENGYIRIKRGTGNSYGVCGLYTSSFYPVKN
In the case of B1, the “FRET peptide cleavage (relative fluorescence over one hour), 10 ul of 120 mg/ml ACCUZYME” value [3] is reported as “A high response was seen with papain ointment”.

B2: human neutrophil elastase (protein)
chain: IVGGRRARPHAWPFMVSLQLRGGHFCGATLIAPNFVMSAAHCVANVNVRAVRVVLGAHNLSRREPTRQVFAVQRIFENGYDPVNLLNDIVILQLNGSATINANVQVAQLPAQGRRLGNGVQCLAMGWGLLGRNRGIASVLQELNVTVVTSLCRRSNVCTLVRGRQAGVCFGDSGSPLVCNGLIHGIASFVRGGCASGLYPDAFAPVAQFVNWIDSIIQ
With B2 the “FRET peptide cleavage (fluorescent signal), 500 ng/ml elastase” value (from here on “FRET peptide cleavage … 500 ng/ml elastase”) [4] was “no signal on any of the peptides when tested with 500 ng/ml of elastase”, the “FRET peptide cleavage (fluorescent signal), 50 ug/ml elastase” value [4] was 50 µg/ml of elastase cross-reacted with both peptides CPI2 and E8 and the “FRET peptide cleavage … 500 ng/ml elastase” value [5] was “no signal on any of the peptides when tested with 500 ng/ml of elastase”. For the same molecule, the “FRET peptide cleavage … 500 ng/ml elastase” value [6] was “no signal on any of the peptides when tested with 500 ng/ml of elastase”, the “FRET peptide cleavage … 500 ng/ml elastase” value [7] was “no signal on any of the peptides when tested with 500 ng/ml of elastase” and the “FRET peptide cleavage … 500 ng/ml elastase” value [8] was “no signal on any of the peptides when tested with 500 ng/ml of elastase”. For the same molecule, the “FRET peptide cleavage (fluorescent signal), 5 ug/ml elastase” value [8] was “Five µg/ml of elastase cross-reacted with the broad spectrum peptide CPI2 (small response)”, the “FRET peptide cleavage (fluorescent signal), 50 ug/ml elastase” value [8] was 50 µg/ml of elastase cross-reacted with both peptides CPI2 and E8 and the “FRET peptide cleavage … 500 ng/ml elastase” value [9] was “no signal on any of the peptides when tested with 500 ng/ml of elastase”.
